This note sets out measurements from publication doi:10.1101/2022.08.14.503891 (bioRxiv, 2022).

Values joined by “and” are separate entries in the source; they are usually repeats but may differ in a detail not shown here. Identical values can stand only once.

In one assay the target is mɑAXL (mouse). In words: SPR. (Surface plasmon resonance follows binding to a sensor surface in real time, without labels.)
The target of assay [1] is biotinylated lysozyme (GeneTex) (Gallus gallus (hen egg white), UniProt P00698, biotin). In words: flow cytometry on cells. For orientation: In flow cytometry, cells or beads pass a laser one at a time.
Chain of biotinylated lysozyme (GeneTex) (P00698 19-147): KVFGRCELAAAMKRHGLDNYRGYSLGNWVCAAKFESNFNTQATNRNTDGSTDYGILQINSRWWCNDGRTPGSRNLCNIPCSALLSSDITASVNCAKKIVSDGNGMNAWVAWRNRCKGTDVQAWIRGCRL
Assay [2] has as its target hen-egg white lysozyme (Sigma) (Gallus gallus (hen egg white), UniProt P00698). In words: SPR.
The target in assay [3] is human Quiescin Sulfhydryl Oxidase 1 (residues 34–546 of HsQSOX1) (human, UniProt O00391). In words: enzyme inhibition.
Chain of human Quiescin Sulfhydryl Oxidase 1 (residues 34–546 of HsQSOX1) (O00391 34-546): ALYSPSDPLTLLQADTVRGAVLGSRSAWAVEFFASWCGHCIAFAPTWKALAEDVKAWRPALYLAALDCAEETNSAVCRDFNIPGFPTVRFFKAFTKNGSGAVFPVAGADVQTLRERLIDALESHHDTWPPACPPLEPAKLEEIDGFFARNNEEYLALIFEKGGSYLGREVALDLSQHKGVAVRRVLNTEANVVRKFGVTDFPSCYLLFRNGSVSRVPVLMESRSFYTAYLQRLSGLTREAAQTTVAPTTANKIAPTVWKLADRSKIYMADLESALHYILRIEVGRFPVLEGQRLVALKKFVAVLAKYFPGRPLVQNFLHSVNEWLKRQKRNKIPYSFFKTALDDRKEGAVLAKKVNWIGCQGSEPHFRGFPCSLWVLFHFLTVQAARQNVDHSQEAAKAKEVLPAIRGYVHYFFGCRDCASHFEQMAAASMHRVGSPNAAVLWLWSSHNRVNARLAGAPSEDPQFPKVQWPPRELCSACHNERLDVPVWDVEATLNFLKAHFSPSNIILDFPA

Chain of hen-egg white lysozyme (Sigma) (P00698 19-147): as the sequence (P00698 19-147) above

Usually Kd stands for the concentration at which binding is half-saturated. High values mean a looser complex, low ones a tighter complex. The koff is the rate constant with which the complex falls apart. Low values mean slow dissociation, high ones fast dissociation. One may read the kon as the second-order rate constant of association. A lower kon goes with slower complex formation. In the assay with mɑAXL (mouse), “AXL (R&D systems) (from UniProt P30530) (receptor)” came in with a dissociation constant (Kd) of 0.95 nM, a koff of 0.000524 s⁻¹ and a kon of 550000 M⁻¹ s⁻¹.

B1: CUMAb design 6 of D44.1 formatted as scFv (scFv, V domains shown)
VH: EVQLVQSGAEVKKPGATVKISCKVSGYTFSTYWMEWVQQAPGKGLEWMGEVLPGSGSTYYAEKFQGRVTITADTSTDTAYMELSSLRSEDTAVYYCARGDGYFQHWGQGTLVTVSS
VL: EIVLTQSPDFQSVTPKEKVTITCRASQSISSNLHWYQQKPDQSPKLLIKYASQSFSGVPSRFSGSGSGTDFTLTINSLEAEDAATYYCHQSNSWPRTFGPGTKVDIK
On to B1, for which the binding result in assay [1] was “binds”.

B2: hɑHEWL Fab (design 1 as a human IgG1 Fab) (Fab, V domains shown)
VH: EVQLVQSGAEVKKPGATVKISCKVSGYTFSTYWMEWVQQAPGKGLEWMGEVLPGSGSTYYAEKFQGRVTITADTSTDTAYMELSSLRSEDTAVYYCARGDGYFQHWGQGTLVTVSS
VL: DIQMTQSPSSLSASVGDRVTITCRASQSISSNLNWYQQKPGKAPKLLIYYASSLQSGVPSRFSGSGSGTDFTLTISSLQPEDFATYYCQQSNSWPRTFGPGTKVDIK
In the case of B2, in assay [2], the Kd was 42 nM and 44 nM; the koff was determined as 0.16 s⁻¹; the kon is 3.9e+06 M⁻¹ s⁻¹.

B3: murine monoclonal antibody mAb492.1 (antibody, V domains shown)
VH: QVQLKQSGPGLVAPSQSLSITCTVSGFSLTGYGVNWVRQSPGKGLEWLGMIWGDGRTDYKSALKSRLSITKDNSKSQVFLKMNSLQTDDTARYFCASDYYGSGSFAYWGQGTLVTVSA
VL: DVVMTQSHKFMSTSVGDRVSITCKASQDVSTAVAWYQQKSGQSPKLLIHSASYRYTGVPDRFTGSGSGTDFTFTISSVQAEDLAVYYCQQHYSIPLTFGAGTKLELK
In the case of B3, the binding result in assay [3] is listed as “binds”.
